From FireProtDB (doi:10.1093/oxfordjournals.jbchem.a021544)

Settings: Homo sapiens; pH 2.7; Thermal; DSC; glycine 0.05 M; reversible: yes; whole UniProt chain shown

B1: Lysozyme C wild type, P61626 (protein)
chain: MKALIVLGLVLLSVTVQGKVFERCELARTLKRLGMDGYRGISLANWMCLAKWESGYNTRATNYNAGDRSTDYGIFQINSRYWCNDGKTPGAVNACHLSCSALLQDNIADAVACAKRVVRDPQGIRAWVAWRNRCQNRDVRQYVQGCGV
  Tm: 64.9 °C
  heat capacity change of unfolding: 1.58 kcal/mol/K
  unfolding enthalpy (calorimetric): 477 kJ/mol
  unfolding enthalpy (van 't Hoff): 502 kJ/mol
